Where two headings read alike, the source gives them in different places.
Assays:
Assay in all cases: Biacore SPR
[1] = molecular target: T1, ActRIIB-Fc homodimer (UniProt Q13705 19-137)
T1 construct: extracellular domain; also called ActRIIB homodimer
T1 sequence (looked up): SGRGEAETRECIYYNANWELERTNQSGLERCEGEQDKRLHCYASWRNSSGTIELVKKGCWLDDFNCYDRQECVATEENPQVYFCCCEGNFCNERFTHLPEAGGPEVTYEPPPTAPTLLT
Description: (§1) Ligands were injected and allowed to flow over the captured receptor protein.

[2] = molecular target: T2, BMPRII-Fc homodimer (UniProt Q13873 27-150)
T2 construct: extracellular domain
T2 sequence (looked up): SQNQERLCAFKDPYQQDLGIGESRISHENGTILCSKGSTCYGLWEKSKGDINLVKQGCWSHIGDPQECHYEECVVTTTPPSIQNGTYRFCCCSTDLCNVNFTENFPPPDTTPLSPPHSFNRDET
Description: as §1

[3] = molecular target: T2, BMPRII-Fc homodimer; remark: listed apart in the source
Description: as §1

[4] = molecular target: T1, ActRIIB-Fc homodimer; remark: listed apart in the source
Description: as §1

[5] = molecular target: T1, ActRIIB-Fc homodimer; remark: listed apart in the source
Description: as §1

[6] = molecular target: T2, BMPRII-Fc homodimer; remark: listed apart in the source
Description: as §1

[7] = molecular target: T2, BMPRII-Fc homodimer; remark: listed apart in the source
Description: A Biacore™-based binding assay was used to compare ligand binding selectivity of the BMPRII-Fc:ALK2-Fc heterodimeric complex described above with that of BMPRII-Fc and ALK2-Fc homodimeric complexes. […] Ligands were injected and allowed to flow over the captured receptor protein.

[8] = molecular target: T1, ActRIIB-Fc homodimer; remark: listed apart in the source
Description: as §1

[9] = molecular target: T3, ActRIIA-Fc homodimer (UniProt P27037 20-135)
T3 construct: extracellular domain
Description: as §1

[10] = molecular target: T4, ALK3-Fc homodimer (UniProt P36894 24-152)
T4 construct: extracellular domain
Description: as §1

[11] = molecular target: T1, ActRIIB-Fc homodimer; remark: listed apart in the source
Description: as §1

T4 sequence (P36894 24-152): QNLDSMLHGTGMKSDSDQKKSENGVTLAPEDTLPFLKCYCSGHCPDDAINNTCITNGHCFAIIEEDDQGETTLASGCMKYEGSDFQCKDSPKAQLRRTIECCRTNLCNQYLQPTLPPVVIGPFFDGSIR
T3 sequence (P27037 20-135): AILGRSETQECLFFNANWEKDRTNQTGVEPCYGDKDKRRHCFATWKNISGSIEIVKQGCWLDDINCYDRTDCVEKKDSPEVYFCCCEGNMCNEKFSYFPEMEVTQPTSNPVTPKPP

Binder	Kd [1]	koff [1]	kon [1]	Kd [2]	Kd [4]	koff [4]	kon [4]	Kd [5]	koff [5]	kon [5]	Kd [8]	koff [8]	kon [8]	Kd [9]	koff [9]	kon [9]	binding result [10]	Kd [11]	koff [11]	kon [11]	other results
BMP10 (ligand, UniProt O95393 317-424, looked up) NAKGNYCKRTPLYIDFKEIGWDSWIIAPPGYEAYECRGVCNYPLAEHLTPTKHAIIQALVHLKNSQKASKACCVPTKLEPISILYLDKGVVTYKFKYEGMAVSECGCR	18 pM	0.00038 s⁻¹	2.1e+07 M⁻¹ s⁻¹	100 pM	5 pM	0.00028 s⁻¹	5.4e+07 M⁻¹ s⁻¹	11 pM	0.00026 s⁻¹	2.3e+07 M⁻¹ s⁻¹	25 pM	0.00015 s⁻¹	5.9e+06 M⁻¹ s⁻¹	85 pM	0.0025 s⁻¹	2.9e+07 M⁻¹ s⁻¹	no binding	4 pM	0.0002 s⁻¹	5.9e+07 M⁻¹ s⁻¹	koff [2]: 0.0025 s⁻¹; kon [2]: 2.6e+07 M⁻¹ s⁻¹; Kd [3]: 100 pM; koff [3]: 0.0025 s⁻¹; kon [3]: 2.6e+07 M⁻¹ s⁻¹; Kd [6]: 100 pM; koff [6]: 0.0025 s⁻¹; kon [6]: 2.6e+07 M⁻¹ s⁻¹; Kd [7]: 130 pM; koff [7]: 0.005 s⁻¹; kon [7]: 3.8e+07 M⁻¹ s⁻¹
GDF3 (ligand, UniProt Q9NR23 251-364, looked up) AAIPVPKLSCKNLCHRHQLFINFRDLGWHKWIIAPKGFMANYCHGECPFSLTISLNSSNYAFMQALMHAVDPEIPQAVCIPTKLSPISMLYQDNNDNVILRHYEDMVVDECGCG	3900 pM	0.0018 s⁻¹	470000 M⁻¹ s⁻¹	–	1700 pM	0.002 s⁻¹	1.2e+06 M⁻¹ s⁻¹	1500 pM	0.0022 s⁻¹	1.4e+06 M⁻¹ s⁻¹	1500 pM	0.0022 s⁻¹	1.4e+06 M⁻¹ s⁻¹	2400 pM	0.0036 s⁻¹	1.5e+06 M⁻¹ s⁻¹	no binding	1400 pM	0.0023 s⁻¹	1.6e+06 M⁻¹ s⁻¹	–

Second part, led by results:

Kd [1]	koff [1]	kon [1]	Kd [2]	Kd [4]	koff [4]	kon [4]	Kd [5]	koff [5]	kon [5]	Kd [8]	koff [8]	kon [8]	Kd [9]	koff [9]	kon [9]	binding result [10]	Kd [11]	koff [11]	kon [11]	Binder	other results
20 pM	0.0001 s⁻¹	5.1e+06 M⁻¹ s⁻¹	3800 pM	28 pM	0.00011 s⁻¹	3.8e+06 M⁻¹ s⁻¹	20 pM	0.0001 s⁻¹	5.1e+06 M⁻¹ s⁻¹	8 pM	0.00016 s⁻¹	1.5e+07 M⁻¹ s⁻¹	10 pM	0.00011 s⁻¹	1.1e+07 M⁻¹ s⁻¹	no binding	20 pM	0.0001 s⁻¹	5.1e+06 M⁻¹ s⁻¹	activin B (ligand, UniProt P09529 293-407, looked up) GLECDGRTNLCCRQQFFIDFRLIGWNDWIIAPTGYYGNYCEGSCPAYLAGVPGSASSFHTAVVNQYRMRGLNPGTVNSCCIPTKLSTMSMLYFDDEYNIVKRDVPNMIVEECGCA	koff [2]: 0.075 s⁻¹; kon [2]: 2e+07 M⁻¹ s⁻¹; Kd [3]: 3800 pM; koff [3]: 0.075 s⁻¹; kon [3]: 2e+07 M⁻¹ s⁻¹; Kd [7]: 2600 pM; koff [7]: 0.0049 s⁻¹; kon [7]: 1.9e+06 M⁻¹ s⁻¹
74 pM	0.00014 s⁻¹	1.9e+06 M⁻¹ s⁻¹	–	110 pM	0.00022 s⁻¹	2e+06 M⁻¹ s⁻¹	2 pM	0.00011 s⁻¹	5e+07 M⁻¹ s⁻¹	2 pM	0.00015 s⁻¹	9.6e+07 M⁻¹ s⁻¹	13 pM	0.00092 s⁻¹	7.3e+07 M⁻¹ s⁻¹	no binding	2 pM	0.00011 s⁻¹	5e+07 M⁻¹ s⁻¹	GDF11 (ligand, UniProt O95390 299-407, looked up, also called BMP11) NLGLDCDEHSSESRCCRYPLTVDFEAFGWDWIIAPKRYKANYCSGQCEYMFMQKYPHTHLVQQANPRGSAGPCCTPTKMSPINMLYFNDKQQIIYGKIPGMVVDRCGCS	–

Source: patent US20190225669A1 (ACCELERON PHARMA, published 2019)
